T1: MUC1-SEA-His protein (UniProt P15941 1039-1148, limits assumed)
T1 construct: domain: SEA; Recombinant antigen used for ELISA coating and as Biacore analyte; also called MUC-SEA-His; antigen protein; not shown: His tag
T1 sequence (looked up): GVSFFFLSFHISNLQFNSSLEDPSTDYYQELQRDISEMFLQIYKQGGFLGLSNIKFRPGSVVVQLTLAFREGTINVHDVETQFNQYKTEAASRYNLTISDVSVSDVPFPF


Experiments:
[1] = target: T2, MUC1 on HCT116/MUC1 cells (UniProt P15941 24-1255, limits assumed); test: FACS titration on HCT116/MUC1 cells
T2 construct: whole, on cells; also called MUC1 overexpressed cell line
Protocol: (§1) To assess cell binding, 2×10⁵ HCT116/MUC1 cells per well were washed with PBS twice and incubated in 200 μl of serial dilutions of chimeric or humanized antibodies for 1 hour at room temperature. After washing 3 times with PBS, secondary antibody (2 μg/ml Alexa Flour®488 goat anti-human IgG) was added to cells and incubated for 30 minutes at room temperature. After washing with PBS, cells were analyzed by using FACSCalibur (BD Bioscience, San Jose, Calif.) and Flowjo software.

[2] = target: T2, MUC1 on HCT116/MUC1 cells; test: FACS titration, HCT116/MUC1 cells, antibody at 125 nM
Protocol: as §1

[3] = target: T2, MUC1 on HCT116/MUC1 cells; test: FACS titration, HCT116/MUC1 cells, antibody at 250 nM
Protocol: as §1

[4] = target: T2, MUC1 on HCT116/MUC1 cells; test: FACS titration, HCT116/MUC1 cells, antibody at 500 nM
Protocol: as §1

[5] = target: T2, MUC1 on HCT116/MUC1 cells; test: FACS titration, HCT116/MUC1 cells, antibody at 62.5 nM
Protocol: as §1

MUC1-SEA-His protein = target: T1, MUC1-SEA-His protein; test: SPR Biacore T200, antibody captured, antigen as analyte
Protocol: Antibody affinity was determined using a Surface Plasmon Resonance (SPR) biosensor, Biacore T200 (GE Healthcare). Antibody was immobilized on the sensor chip through Fc capture method. Antigen protein was used as the analyte. The data of dissociation (kd) and association (ka) rate constants were obtained using Biacore T200 evaluation software. The apparent equilibrium dissociation constants (KD) were calculated from the ratio of kd over ka. For affinity ranking, twenty-five humanized antibodies plus chimericantibody were injected and captured on sensor chip individually. The antibodies were ranked based on their dissociation rates (kd).

[6] = target: T2, MUC1 on HCT116/MUC1 cells; test: FACS titration, HCT116/MUC1 cells, antibody at 0.244 nM
Protocol: as §1

[7] = target: T2, MUC1 on HCT116/MUC1 cells; test: FACS titration, HCT116/MUC1 cells, antibody at 0.488 nM
Protocol: as §1

[8] = target: T2, MUC1 on HCT116/MUC1 cells; test: FACS titration, HCT116/MUC1 cells, antibody at 0.977 nM
Protocol: as §1

[9] = target: T2, MUC1 on HCT116/MUC1 cells; test: FACS titration, HCT116/MUC1 cells, antibody at 1.953 nM
Protocol: as §1

[10] = target: T2, MUC1 on HCT116/MUC1 cells; test: FACS titration, HCT116/MUC1 cells, antibody at 3.906 nM
Protocol: as §1

[11] = target: T2, MUC1 on HCT116/MUC1 cells; test: FACS titration, HCT116/MUC1 cells, antibody at 31.25 nM
Protocol: as §1

[12] = target: T2, MUC1 on HCT116/MUC1 cells; test: FACS titration, HCT116/MUC1 cells, antibody at 7.812 nM
Protocol: as §1

[13] = target: T2, MUC1 on HCT116/MUC1 cells; test: FACS titration, HCT116/MUC1 cells, antibody at 15.625 nM
Protocol: as §1

T2 sequence (P15941 24-1255 limits assumed): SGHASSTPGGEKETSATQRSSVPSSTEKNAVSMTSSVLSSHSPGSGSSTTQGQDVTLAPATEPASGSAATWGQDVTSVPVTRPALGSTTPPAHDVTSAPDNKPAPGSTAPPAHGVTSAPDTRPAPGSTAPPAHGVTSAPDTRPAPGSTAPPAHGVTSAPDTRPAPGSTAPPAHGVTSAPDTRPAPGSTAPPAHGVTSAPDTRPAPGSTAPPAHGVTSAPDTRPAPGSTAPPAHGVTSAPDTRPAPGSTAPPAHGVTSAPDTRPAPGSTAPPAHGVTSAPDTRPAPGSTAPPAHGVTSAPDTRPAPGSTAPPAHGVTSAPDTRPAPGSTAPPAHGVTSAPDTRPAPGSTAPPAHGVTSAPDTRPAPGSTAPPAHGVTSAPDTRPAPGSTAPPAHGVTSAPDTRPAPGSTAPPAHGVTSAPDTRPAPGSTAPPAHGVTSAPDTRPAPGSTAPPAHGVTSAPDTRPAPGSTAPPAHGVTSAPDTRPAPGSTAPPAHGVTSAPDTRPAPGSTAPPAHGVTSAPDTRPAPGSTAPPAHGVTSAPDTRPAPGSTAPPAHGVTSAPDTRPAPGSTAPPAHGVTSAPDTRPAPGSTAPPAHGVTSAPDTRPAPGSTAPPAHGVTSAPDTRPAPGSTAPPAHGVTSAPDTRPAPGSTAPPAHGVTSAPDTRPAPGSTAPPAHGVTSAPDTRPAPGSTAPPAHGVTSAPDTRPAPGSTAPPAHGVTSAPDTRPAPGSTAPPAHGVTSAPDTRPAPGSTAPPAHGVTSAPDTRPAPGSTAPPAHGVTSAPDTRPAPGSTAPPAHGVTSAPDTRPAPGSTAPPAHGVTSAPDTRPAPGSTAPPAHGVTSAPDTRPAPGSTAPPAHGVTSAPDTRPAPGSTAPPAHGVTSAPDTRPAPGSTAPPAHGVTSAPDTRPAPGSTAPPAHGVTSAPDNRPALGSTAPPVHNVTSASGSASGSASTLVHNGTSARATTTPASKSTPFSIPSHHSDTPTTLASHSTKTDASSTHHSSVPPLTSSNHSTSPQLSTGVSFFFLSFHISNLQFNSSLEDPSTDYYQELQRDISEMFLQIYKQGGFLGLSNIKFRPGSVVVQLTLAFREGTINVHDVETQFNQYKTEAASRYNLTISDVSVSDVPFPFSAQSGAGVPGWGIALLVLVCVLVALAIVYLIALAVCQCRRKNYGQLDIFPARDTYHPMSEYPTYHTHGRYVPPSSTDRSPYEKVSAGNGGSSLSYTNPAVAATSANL

Binder | koff (MUC1-SEA-His protein) | also measured
VH5 + VL3 (antibody, V domains shown, Humanized IgG expressed in HEK293; also called humanized antibody VH5+VL3) VH: EVQLVQSGAEVKKPGESLKISCKGSGYAFSNFWMNWVRQMPGKGLEWMGQIYPGDGDTNYNGKFKGQVTISADKSISTAYLQWSSLKASDTAMYYCARSYYRSAWFAYWGQGTLVTVSL VL: EIVLTQSPATLSLSPGERATLSCRASQSIGTSIHWYQQKPGQAPRLLIYYASESISGIPARFSGSGSGTDFTLTISSLEPEDFAVYYCQQSNNWPLTFGGGTKVEIK | 0.0164 s⁻¹ | EC50 [1]: 21.9 nM; geometric mean [2]: 126; geometric mean [3]: 167; geometric mean [4]: 170; geometric mean [5]: 141; geometric mean [6]: 2.82; geometric mean [7]: 3.27; geometric mean [8]: 4.13; geometric mean [9]: 8.05; geometric mean [10]: 15.5; geometric mean [11]: 110; geometric mean [12]: 31; geometric mean [13]: 61.5
VH4 + VL2 (antibody, V domains shown, Humanized IgG expressed in HEK293; also called humanized antibody VH4+VL2) VH: QVQLVQSGAEVKKPGATVKISCKVSGYAFSNFWMNWVQQAPGKGLEWMGQIYPGDGDTNYNGKFKGRVTITADTSTDTAYMELSSLRSEDTAVYYCARSYYRSAWFAYWGQGTLVTVSR VL: EIVMTQSPATLSVSPGERATLSCRASQSIGTSIHWYQQKPGQAPRLLIYYASESISGIPARFSGSGSGTEFTLTISSLQSEDFAVYYCQQSNNWPLTFGGGTKVEIK | 0.0315 s⁻¹ | –
VH3 + VL2 (antibody, V domains shown, Humanized IgG expressed in HEK293; also called humanized antibody VH3+VL2) VH: QVQLVQSGAEVKKPGASVKVSCKASGYAFSNFWMNWVRQAPGQGLEWMGQIYPGDGDTNYNGKFKGRVTMTRDTSISTAYMELSRLRSDDTAVYYCARSYYRSAWFAYWGQGTLVTVSS VL: EIVMTQSPATLSVSPGERATLSCRASQSIGTSIHWYQQKPGQAPRLLIYYASESISGIPARFSGSGSGTEFTLTISSLQSEDFAVYYCQQSNNWPLTFGGGTKVEIK | 0.0195 s⁻¹ | –
VH2 + VL2 (antibody, V domains shown, Humanized IgG expressed in HEK293; also called humanized antibody VH2+VL2) VH: QVQLVQSGAEVKKPGASVKVSCKASGYAFSNFWMNWVRQAPGQGLEWMGQIYPGDGDTNYNGKFKGRVTMTRDTSTSTVYMELSSLRSEDTAVYYCARSYYRSAWFAYWGQGTLVTVSS VL: EIVMTQSPATLSVSPGERATLSCRASQSIGTSIHWYQQKPGQAPRLLIYYASESISGIPARFSGSGSGTEFTLTISSLQSEDFAVYYCQQSNNWPLTFGGGTKVEIK | 0.0166 s⁻¹ | –
VH5 + VL5 (antibody, V domains shown, Humanized IgG expressed in HEK293; also called humanized antibody VH5+VL5) VH: EVQLVQSGAEVKKPGESLKISCKGSGYAFSNFWMNWVRQMPGKGLEWMGQIYPGDGDTNYNGKFKGQVTISADKSISTAYLQWSSLKASDTAMYYCARSYYRSAWFAYWGQGTLVTVSL VL: DIVMTQSPSLLSASTGDRVTISCRASQSIGTSIHWYQQKPGKAPELLIYYASESISGVPSRFSGSGSGTDFTLTISCLQSEDFATYYCQQSNNWPLTFGQGTKVEIK | 0.0207 s⁻¹ | –
VH1 + VL2 (antibody, V domains shown, Humanized IgG expressed in HEK293; also called humanized antibody VH1+VL2) VH: QVQLVQSGAEVKKPGSSVKVSCKASGYAFSNFWMNWVRQAPGQGLEWMGQIYPGDGDTNYNGKFKGRVTITADKSTSTAYMELSSLRSEDTAVYYCARSYYRSAWFAYWGQGTLVTVSS VL: EIVMTQSPATLSVSPGERATLSCRASQSIGTSIHWYQQKPGQAPRLLIYYASESISGIPARFSGSGSGTEFTLTISSLQSEDFAVYYCQQSNNWPLTFGGGTKVEIK | 0.0294 s⁻¹ | –
VH1 + VL3 (antibody, V domains shown, Humanized IgG expressed in HEK293; also called humanized antibody VH1+VL3) VH: QVQLVQSGAEVKKPGSSVKVSCKASGYAFSNFWMNWVRQAPGQGLEWMGQIYPGDGDTNYNGKFKGRVTITADKSTSTAYMELSSLRSEDTAVYYCARSYYRSAWFAYWGQGTLVTVSS VL: EIVLTQSPATLSLSPGERATLSCRASQSIGTSIHWYQQKPGQAPRLLIYYASESISGIPARFSGSGSGTDFTLTISSLEPEDFAVYYCQQSNNWPLTFGGGTKVEIK | 0.0225 s⁻¹ | –
VH5 + VL2 (antibody, V domains shown, Humanized IgG expressed in HEK293; also called humanized antibody VH5+VL2) VH: EVQLVQSGAEVKKPGESLKISCKGSGYAFSNFWMNWVRQMPGKGLEWMGQIYPGDGDTNYNGKFKGQVTISADKSISTAYLQWSSLKASDTAMYYCARSYYRSAWFAYWGQGTLVTVSL VL: EIVMTQSPATLSVSPGERATLSCRASQSIGTSIHWYQQKPGQAPRLLIYYASESISGIPARFSGSGSGTEFTLTISSLQSEDFAVYYCQQSNNWPLTFGGGTKVEIK | 0.0228 s⁻¹ | –
VH4 + VL3 (antibody, V domains shown, Humanized IgG expressed in HEK293; also called humanized antibody VH4+VL3) VH: QVQLVQSGAEVKKPGATVKISCKVSGYAFSNFWMNWVQQAPGKGLEWMGQIYPGDGDTNYNGKFKGRVTITADTSTDTAYMELSSLRSEDTAVYYCARSYYRSAWFAYWGQGTLVTVSR VL: EIVLTQSPATLSLSPGERATLSCRASQSIGTSIHWYQQKPGQAPRLLIYYASESISGIPARFSGSGSGTDFTLTISSLEPEDFAVYYCQQSNNWPLTFGGGTKVEIK | 0.0237 s⁻¹ | –
VH2 + VL5 (antibody, V domains shown, Humanized IgG expressed in HEK293; also called humanized antibody VH2+VL5) VH: QVQLVQSGAEVKKPGASVKVSCKASGYAFSNFWMNWVRQAPGQGLEWMGQIYPGDGDTNYNGKFKGRVTMTRDTSTSTVYMELSSLRSEDTAVYYCARSYYRSAWFAYWGQGTLVTVSS VL: DIVMTQSPSLLSASTGDRVTISCRASQSIGTSIHWYQQKPGKAPELLIYYASESISGVPSRFSGSGSGTDFTLTISCLQSEDFATYYCQQSNNWPLTFGQGTKVEIK | 0.0193 s⁻¹ | –
VH3 + VL5 (antibody, V domains shown, Humanized IgG expressed in HEK293; also called humanized antibody VH3+VL5) VH: QVQLVQSGAEVKKPGASVKVSCKASGYAFSNFWMNWVRQAPGQGLEWMGQIYPGDGDTNYNGKFKGRVTMTRDTSISTAYMELSRLRSDDTAVYYCARSYYRSAWFAYWGQGTLVTVSS VL: DIVMTQSPSLLSASTGDRVTISCRASQSIGTSIHWYQQKPGKAPELLIYYASESISGVPSRFSGSGSGTDFTLTISCLQSEDFATYYCQQSNNWPLTFGQGTKVEIK | 0.023 s⁻¹ | –
VH1 + VL5 (antibody, V domains shown, Humanized IgG expressed in HEK293; also called humanized antibody VH1+VL5) VH: QVQLVQSGAEVKKPGSSVKVSCKASGYAFSNFWMNWVRQAPGQGLEWMGQIYPGDGDTNYNGKFKGRVTITADKSTSTAYMELSSLRSEDTAVYYCARSYYRSAWFAYWGQGTLVTVSS VL: DIVMTQSPSLLSASTGDRVTISCRASQSIGTSIHWYQQKPGKAPELLIYYASESISGVPSRFSGSGSGTDFTLTISCLQSEDFATYYCQQSNNWPLTFGQGTKVEIK | 0.0302 s⁻¹ | –
VH4 + VL5 (antibody, V domains shown, Humanized IgG expressed in HEK293; also called humanized antibody VH4+VL5) VH: QVQLVQSGAEVKKPGATVKISCKVSGYAFSNFWMNWVQQAPGKGLEWMGQIYPGDGDTNYNGKFKGRVTITADTSTDTAYMELSSLRSEDTAVYYCARSYYRSAWFAYWGQGTLVTVSR VL: DIVMTQSPSLLSASTGDRVTISCRASQSIGTSIHWYQQKPGKAPELLIYYASESISGVPSRFSGSGSGTDFTLTISCLQSEDFATYYCQQSNNWPLTFGQGTKVEIK | 0.0578 s⁻¹ | –
VH4 + VL4 (antibody, V domains shown, Humanized IgG expressed in HEK293; also called humanized antibody VH4+VL4) VH: QVQLVQSGAEVKKPGATVKISCKVSGYAFSNFWMNWVQQAPGKGLEWMGQIYPGDGDTNYNGKFKGRVTITADTSTDTAYMELSSLRSEDTAVYYCARSYYRSAWFAYWGQGTLVTVSR VL: AIQLTQSPSSLSASVGDRVTITCRASQSIGTSIHWYQQKPGKAPKLLIYYASESISGVPSRFSGSGSGTDFTLTISSLQPEDFATYYCQQSNNWPLTFGGGTKVEIK | 0.0243 s⁻¹ | –

Source: patent US20180036441A1 (Dana-Farber, published 2018)
